In the supplement of paper PMC12042874:
± gives the uncertainty stated by the source.

Test: amyloid nucleation score (Sup35N fusion, yeast selection) (log enrichment); library NNK1; higher = more nucleation; inactive = no reads after selection
Outline: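 Plasmid inserts were Illumina-sequenced at input and output from psi-negative yeast expressing Sup35N fused to peptides of 20 random codons. The yeast were induced with 100 μM copper sulfate for 24 hours and grown 7 days at 30°C on medium lacking adenine and uracil, and sequences with under 100 input reads were excluded. Nucleation score is the DiMSum log enrichment of output over input reads, centred on the mode score of non-aggregating sequences.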

Row | Substance | amyloid nucleation score
1 | LKNGSDSILDARVYLGG | -0.221 ± 0.51
2 | LKRVCNS | 0.002 ± 0.63
3 | LKTGGSPNLVANYMYDRCAG | 0.581 ± 0.38
4 | LKTRALASGWEAECADRGGV | -0.056 ± 0.64
5 | LKVRLNESIICYAMRVKHIC | 0.345 ± 0.36
6 | LKYMYHYVSMKVFVLGISMR | 0.005 ± 1.7
7 | LLAFYSVTFVSRWILQCYML | -0.498 ± 0.36
8 | LLAGYCQSYIQLELSNSEHV | -0.241 ± 0.84
9 | LLDRRVGKLGLDCMLLDLCQ | 0.752 ± 0.42
10 | LLFSPIFLDSGPHTLWLYMF | 0.491 ± 0.87
11 | LLGASLNVKPESDFLLPAKR | 0.175 ± 0.41
12 | LLGIEFTSDLLPIPSISPNE | 0.239 ± 0.63
13 | LLKENWFNCSLWHDIVGISM | -0.596 ± 0.59
14 | LLKWLVDAW | 0.493 ± 0.25
15 | LLLNTLLWSL | -1.83 ± 2.7
16 | LLLSILRWDEDMMLNFW | 1.21 ± 0.43
17 | LLLTHNLVNADDSVDSMQHK | 0.086 ± 0.24
18 | LLMVREDRRRFRSFGS | 0.773 ± 0.76
19 | LLNEDYTGHSCDPEGEDTR | 0.589 ± 0.52
20 | LLNQFLTRSASYTRGTESID | 0.295 ± 0.24
21 | LLRLRISEIGSRLIKVWKSW | 0.155 ± 0.35
22 | LLRVAFLKRYFSTIFCVLLR | -0.716 ± 0.53
23 | LLSMLRCYWVSRLFV | -0.079 ± 0.65
24 | LLVNFSTSRLSLYMFIMIFS | -0.779 ± 0.39
25 | LLWEPRKFFESNWLSIQSAK | -0.668 ± 1.7

Row | Substance | amyloid nucleation score
26 | LLYLCYIRCI | 0.952 ± 0.65
27 | LLYSERTIIPVDRYT | -0.686 ± 0.48
28 | LMDIGPANEKFN | -1.18 ± 1.4
29 | LMFKGEYCWLVIWQGLTWGV | 0.278 ± 0.52
30 | LMFLGWSNRKMTSHSIMTVL | 0.293 ± 1
31 | LMGNEL | -0.396 ± 0.4
32 | LMIRILMVAQNSVLTVFW | -0.324 ± 0.4
33 | LMLTARPVMFVLLCWWFRSS | 0.246 ± 0.43
34 | LMNCVAYAIVEVTCVSCMES | 4.68 ± 0.082
35 | LMRHYSHMFYIRHAVLLTNP | 0.255 ± 0.36
36 | LMSASNLNAVSKQCIRLRRC | 1.48 ± 0.55
37 | LMTPEKVNEGATDRLRLFRN | -0.323 ± 0.68
38 | LNASGIVVCFYSSDNTCTYE | 4.49 ± 0.089
39 | LNCLFLFSISAFRVLASHIM | 0.448 ± 0.42
40 | LNDGTGDQ | -0.138 ± 0.37
41 | LNFFVPA | -1.38 ± 2.4
42 | LNHLVSPKALQN | 0.017 ± 0.4
43 | LNHRIYNLLHVILWVKQWMK | 0.164 ± 1.5
44 | LNICCEEYQDRYTTDNFLLL | 0.583 ± 0.57
45 | LNIGTW | 0.185 ± 0.28
46 | LNISMFHSNSSHTTEEVTHH | 1.32 ± 0.19
47 | LNNHETFFGFVDVSGSAIS | 0.272 ± 0.26
48 | LNNLWNLGLTGLQGGNMYKI | inactive
49 | LNRHYFCVGIPYGPYSQRYL | 0.51 ± 0.75
50 | LNRSTDAFWNKIRTG | 1.01 ± 0.49

Row | Substance | amyloid nucleation score
51 | LNRTRCLWL | 0.877 ± 0.58
52 | LNSDCCPNSFDKHFLSFLCM | 0.433 ± 0.81
53 | LNSVVTVKWVLKARSLVVRC | 1.16 ± 0.88
54 | LNTCLFISDTAVFIMASYMV | 3.06 ± 0.45
55 | LPDCINNVQNGYSKLSEGLS | 0.792 ± 1
56 | LPGDFYGSYRN | inactive
57 | LPGFWPFMSDTPLGHQIVA | -1.07 ± 1.6
58 | LPSVESLHRTTSCVYF | -0.561 ± 1.2
59 | LPVHGMFWSVR | -0.157 ± 0.78
60 | LPWGRTAFENFFVTMFFSKC | -0.994 ± 1.5
61 | LQLWLMDGSSRGRWV | 0.12 ± 0.64
62 | LQSTFFFYGGCKRVWSMMYH | 4.45 ± 0.12
63 | LRAHGAYRYQWEACCHNLG | -0.138 ± 0.36
64 | LRAWMSVASDNGLLMFCRNH | -0.324 ± 0.46
65 | LRCFYEYGFHKRTKVDSIDT | inactive
66 | LRCKMYSMWKTSYFTVMLGG | -0.261 ± 0.44
67 | LRDTFPVLLAILCMNIINNC | -0.14 ± 0.29
68 | LRFIRRYIESHITFVRKLLK | inactive
69 | LRITNAPKLVYVSAQEVNSQ | 1.47 ± 0.25
70 | LRKWSERGPWP | 0.048 ± 0.46
71 | LRLMLCFMFYAWTALCKPRD | 0.31 ± 0.23
72 | LRRLEGLMSLGSFKFSPYGP | 0.227 ± 1.2
73 | LRSSEYWSLMEVDLVMDSLP | 0.629 ± 0.97
74 | LRSVSGCIKFAYGDSCMSLK | inactive
75 | LRTARNMGYICSIVSFNNLN | 5.13 ± 0.055

Row | Substance | amyloid nucleation score
76 | LRVRFKSWDLSITLGVQ | 1.26 ± 0.9
77 | LRWMESLRLNARSFKDTLLC | -0.33 ± 1.7
78 | LSAEFGSMLRLLCH | inactive
79 | LSAWPTIEEMVPAHMKTTHA | 0.526 ± 0.54
80 | LSCKSVVPLSNSWYAIVLRL | 1.19 ± 0.29
81 | LSCWTCNRFYRGGLLVCMYP | -0.713 ± 0.46
82 | LSDLDIRKQLVYMRSIRVGT | -0.339 ± 0.94
83 | LSDRVFSVTTQGPCDSIFLS | -0.792 ± 0.61
84 | LSFNSTSPEIIRTVVMAWC | -1.54 ± 1.7
85 | LSGLRNVLPLLTMYASIMKV | 0.688 ± 0.7
86 | LSHLLMRCGCIRLFVISMRE | 0.448 ± 0.49
87 | LSIGFGNPVAS | -0.312 ± 0.29
88 | LSIILRNVMCNIFSSNLITH | 0.973 ± 0.16
89 | LSILSGWNTE | 0.146 ± 0.32
90 | LSKGRATVYF | 2.06 ± 0.23
91 | LSLGLSGLVQPSDGTVG | -0.284 ± 0.7
92 | LSLRDLGSLALRGLKMNATR | -0.397 ± 0.91
93 | LSMRIQAQMIVAWPTKHPIL | 4.99 ± 0.12
94 | LSMSCENFHLTQSSEGCSRV | 0.19 ± 0.51
95 | LSNRSKNDGKSRLIPMDDVH | inactive
96 | LSRPVDNSCLESMRRVDWTH | -0.444 ± 1.2
97 | LSRTKGKAQCLGQVGRMRVL | 0.294 ± 0.54
98 | LSRTSKSPFGGEFLERHIYI | -0.42 ± 1
99 | LSSNSYQDVSVCQGFLFFVA | 3.36 ± 0.15
100 | LSSVNGVLGRIGHLVAPSSF | -0.066 ± 1

Row | Substance | amyloid nucleation score
101 | LSTMRLGHYCLAYCRLGCLY | 0.827 ± 0.41
102 | LSVNWFGCTWQNHKEGIGRN | 1.79 ± 0.12
103 | LSVSFDVDVMVMIQVNCAIH | 0.105 ± 0.39
104 | LSVVVDRVLDNCLIGLYNAG | 0.174 ± 0.28
105 | LTASLTAGVTRWVLRRFVYH | 0.588 ± 0.77
106 | LTCEFRGTRPMMYASDPLFY | 1.14 ± 0.76
107 | LTFNPLTGCNNSQWFDGISG | -1.23 ± 2.1
108 | LTILCWWLYEIRR | 0.556 ± 0.55
109 | LTLALESLEPIRLTRNMWAL | -0.411 ± 0.65
110 | LTLFEPLMRDCYICSYFNFF | 7.047 ± 0.053
111 | LTLFLCISRLPGTPTLYWVL | 0.752 ± 0.62
112 | LTLKTSNHFIYLSLLYIRVV | -0.03 ± 0.3
113 | LTSGLI | 0.807 ± 1
114 | LTYLMWRRYSNIFQTSCSCL | 0.499 ± 0.59
115 | LVAYVTRRFVLCM | -1.42 ± 1.8
116 | LVENLWTLRRRLVGALF | 0.31 ± 0.4
117 | LVEVNWI | -0.412 ± 0.47
118 | LVFCVLMW | 0.532 ± 0.16
119 | LVFFHISR | 4.94 ± 0.1
120 | LVFSRYYRCLFTIDF | 3.62 ± 0.11
121 | LVFVTWLSMHVNTTGVFSLS | 0.242 ± 0.41
122 | LVITIDARRVAVTLIYMKMR | 2.37 ± 0.15
123 | LVLGSSLWAGCCDQPHGWQV | -0.211 ± 0.54
124 | LVLHNVDELYINSSHF | 0.77 ± 0.5
125 | LVMFEIKLMRFNFTMRSVRR | 2.91 ± 0.13

Row | Substance | amyloid nucleation score
126 | LVMMTDIANWRLPCYFSNLW | 0.201 ± 0.54
127 | LVPVITWK | 4.3 ± 0.13
128 | LVSDSYNSLSLQDNLALLLI | 0.261 ± 0.4
129 | LVSQTYNMVARLRSSLARVN | 0.243 ± 0.78
130 | LVVAVW | 0.269 ± 0.35
131 | LVWILHVSSVNNHVDWGMLE | -1.64 ± 2.4
132 | LVWVS | 0.134 ± 0.65
133 | LVYRCASRRVSNSFMLCW | -0.542 ± 0.62
134 | LWGRFYIYHSLFHRSHHVKL | -0.284 ± 1
135 | LWHEI | 0.427 ± 0.51
136 | LWLTHKCYCLDSNTCIKCEL | -0.312 ± 0.38
137 | LWLTPTQCMTHNFPLLTPRR | -0.354 ± 0.47
138 | LWLWHELHAIYMGMRGVSVL | inactive
139 | LWPDTDPIGGE | -0.74 ± 1.1
140 | LWPKVLMVFTSM | 1.67 ± 0.15
141 | LWRLEWLLSGQRGTSPAVRV | 0.764 ± 0.55
142 | LWSPSQ | 0.202 ± 0.56
143 | LWTFGDRSVWLDDSMRWVPR | -0.145 ± 1.1
144 | LWVFRCARLKVWQPRKGWGQ | 0.844 ± 0.48
145 | LWVFS | 0.762 ± 0.7
146 | LWWFEYRL | -0.016 ± 0.32
147 | LWWLHGDLLLSWGFRMLWPL | 0.117 ± 0.78
148 | LYAWGVRYSVVMLFSYRGVH | -0.026 ± 1.2
149 | LYCRNRCRACCKRFTFK | inactive
150 | LYFVCIFPYRVRTECSEQSR | 4.32 ± 0.095

Row | Substance | amyloid nucleation score
151 | LYGLLAGIMSCHWLSWIACK | -0.96 ± 2.7
152 | LYGSRPYSTTKTY | -0.11 ± 0.33
153 | LYHRGVFELCS | 0.596 ± 0.34
154 | LYKLWQSKFTVYWLEGLTSY | inactive
155 | LYLYM | 0.959 ± 0.34
156 | LYTLRLGI | -0.134 ± 0.84
157 | LYVDGGPCPTAELGQRSYEK | -0.17 ± 0.42
158 | LYVDH | inactive
159 | LYVPCAIVGSLTRG | 1.06 ± 0.66
160 | LYYDSRASFPCISLEIERYV | -0.083 ± 0.33
161 | MAKSGNEI | 0.062 ± 0.79
162 | MCASASTSKMLVWVWTPYFG | 2.14 ± 0.13
163 | MCGDIPQ | 0.35 ± 0.74
164 | MCGQLV | -0.447 ± 0.74
165 | MCNVGTVRAYSLIQGGIRQC | 0.373 ± 0.34
166 | MCVGRDISGEWSYYQCMVEL | 0.495 ± 0.28
167 | MCVILVELYQRGSWYTRKVM | -0.206 ± 1.1
168 | MCVLYMGGSFRF | 1.58 ± 0.44
169 | MCWPTDAEDAICTSLK | 2.12 ± 0.11
170 | MDKLMSMELLSFLGNRSVHV | inactive
